The supplement of paper PMC9170038

Tested on: MS2 coat protein
Assay: apparent KD of MS2 coat protein; higher = weaker reporter binding
Conditions: Eterna round: R107
Method in brief: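 Designed RNA switches were transcribed on-chip from Illumina sequencing clusters. SNAP-549-labelled MS2 coat protein was titrated onto them in twofold steps from 0.7 or 1.5 nM to 3 µM in 100 mM Tris-HCl pH 7.5, 80 mM KCl, 4 mM MgCl2, either without or with constant ligand. Apparent KD reflects the per-design median of normalised cluster binding-curve fits.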

[1] = input ligand: theophylline 20 uM
[2] = input ligand: theophylline 2 mM
[3] = input ligand: tryptophan 2.4 mM

| Sequence | apparent KD of MS2 coat protein (input ligand: arginine 13.2 mM) | apparent KD of MS2 coat protein (input ligand: none) | apparent KD of MS2 coat protein [1] | apparent KD of MS2 coat protein [2] | apparent KD of MS2 coat protein [3] |
| --- | --- | --- | --- | --- | --- |
| AUACAUGAGGAUCACCCAUGUAUAGUUGAAGGAGCGACCAGAGGGUCAGGUAGGUCGCAGCGCAUGAGGUAAGCCCAUGUAUGCU [#1 Exclusion - Arginine A Attempt #16 (Inspired by Pi)] | 22.7 nM | 22.8 nM | 44 nM | 70 nM | 17.2 nM |
| AUACAUGAGGAUCACCCAUGUCUUACGGAAGGAGCGAUCAAGAGAUCAGGUAGGUCGCCGUACAUGAGGAUCACCCAUGUAGGCG [EAA NP+V+V2 #9 DOUBLE] | 19.5 nM | 32.3 nM | 33.4 nM | 35.7 nM | 31.3 nM |
| AUACAUGAGGAUCACCCAUGUUAUAGUGAAGGAGCGACAUUUAGGUCAGGUAGGUCGCACUAUUGAAUUAUUAUUCUCAGUUCUU [JR_ExcArginiA_Sub019] | 14.2 nM | 13.2 nM | 21.8 nM | 13.7 nM | 15.2 nM |
| AUACAUGAGGAUCACCCAUGUUAUAGUGAAGGAGCGACAUUUAUGUCAGGUAGGUCGCACUGUUGUUUAAUGAUUCUUGGAUCUU [#20 Exclusion - Arginine A] | 16 nM | 13.3 nM | 18.9 nM | 14.1 nM | 15.1 nM |
| AUAGUCUUGAGUGAUACCAGACUACAUGAGGAUCACCCAUGUUUCUUUUGGUUAUCAUGUGUCCCUUGGCAGCACGCAUGUAUAG [JR_ExcTheophyB_Sub014] | 17.5 nM |  | 28 nM |  | 12.6 nM |
| AUAUGGCGAGAUGAUACCAGACACAUGAGGAUCACCCAUGUUGAUGGUAAGUCUGCAUAUGUCCCUUGGCAGCAUAGCGACAUAU [X-TheoB-ms2@23] | 8.63 nM |  | 11.9 nM |  | 8.34 nM |
| AUAUUAAAGAGUGAUACCAGACUACAUGAGGAUCACCCAUGUUACAUUUAAAUAUCAUUUGUCCCUUGGCAGCACAUUAAGUACA [JR_Nu_ExcTheophyB_Sub022] | 20.9 nM |  | 22.1 nM |  | 17.5 nM |
| AUCAUGUAAUCAGAUACCAGACAUCUUUUAAUACAUAUUACAUGAGGAUCACCCAUGUUGGUCCCUUGGCAGCUGAAAUAUUUUU [JR_Nu_SSTheophyB_Sub027] | 128 nM |  | 191 nM |  | 246 nM |
| AUCGGCAGAAAAGAUACCAGAGUAAUACACAACAUGAGGAUCACCCAUGUACGGACAAUCCUCCCUUGGCAGCUUGUAACAGUAU [theeternabot_sameState_MS2_Theo_B_32] | 37.4 nM |  | 63.8 nM |  | 48 nM |
| AUCGUACCUGAUGAUACCAGCAAGUGAUCAUAACAUGAGGAUCACCCAUGUAAUCAGUGAUGCCCUUGGCAGCAUAAUCGAUACA [Same State - Theophylline B (Freestyle 4)] | 91.6 nM |  | 204 nM |  | 164 nM |
| AUCGUACCUGAUGAUACCAGCAUGUGCUCGUAACAUGAGGAUCACCCAUGUGAUCAGUGAUGCCCUUGGCAGCAUGAUCGGUGCA [Same State - Theophylline B (Freestyle 18)] | 94 nM |  | 134 nM |  | 167 nM |
| AUGCAUAGCCGAAGGAGCGCAGUAGGAUGACAUGAGGAUCACCCAUGUGUGUGAUGUGGAUUGCAGGUAGGUCGCGGAGUGGUAU [Exclusion - Arginine B (Freestyle 5)] | 47 nM | 119 nM | 128 nM | 119 nM | 58 nM |
| AUGGCGUUGGUGUAGCUGUGAAAUGGCGAUACCAGCGUGGAAACACGCCCUUGGCAGCGCCAAAACAUGAGGAUCACCCAUGUUA [Hradec] | 16.6 nM |  | 45.1 nM |  | 18.1 nM |
| AUGGUAGGACAGCACAUAUAAGCUUGUGAUACCAGCUAGAAAACUAGCCCUUGGCAGCACAUUACAUGAGGAUCACCCAUGUCCC [EThA NP+V+V2 #1] | 44.1 nM |  | 68.6 nM |  | 50 nM |
| AUGUCAUUGGUGUAGCUGUGAAAUGGCGAUACCAGCGUGGAAACACGCCCUUGGCAGCGCCAAAACAUGAGGAUCACCCAUGUUA [Pardubice] | 36.2 nM |  | 135 nM |  | 80 nM |
| AUUAAUAAUAUGUAGACGGCGGAGAAGAGACGAGGACCGGUACGGCCGCCACUCGUGUUAGUUAACAUGAGGAUCACCCAUGUUA [#09 Tryptophan A Same State] | 9.55 nM | 11.8 nM | 17.5 nM | 12.6 nM | 11.9 nM |
| AUUCAUGGAAACAUGACAUACAUAUCCGGUCGAGGACCGGUACGGCCGCCACUCGUUUGGAGGCACAUGAGGAUCACCCAUGUUA [SS Tryp A #8] | 21.3 nM |  | 34.4 nM | 25.9 nM |  |

| Sequence | apparent KD of MS2 coat protein (input ligand: arginine 13.2 mM) | apparent KD of MS2 coat protein (input ligand: none) | apparent KD of MS2 coat protein [1] | apparent KD of MS2 coat protein [2] | apparent KD of MS2 coat protein [3] |
| --- | --- | --- | --- | --- | --- |
| AUUCCAUUGGUGCAGUUGUUAAAUGGCGAUACCAGCGUGGAAACACGCCCUUGGCAGCGCCAAAACAUGAGGAUCACCCAUGUUA [Havirov] | 32.1 nM |  | 70.5 nM |  | 59.1 nM |
| AUUCUUUACUGAAGGAGCGUCAUUCUUACAUGAGGAUCACCCAUGUUUAUUCUUUAUGAUUGACAGGUAGGUCGCAGAUUUUUUA [#11 Same State - Arginine B] | 19.5 nM | 17.8 nM | 24.4 nM | 19 nM | 17 nM |
| CAAUACGUAACUGAUACCAGUGUACUGACAUGAGGAUCACCCAUGUUGGGUUUUGUUGUACACCCUUGGCAGCAGAAUCGUAUUG [AstrosExyTheB#11] | 46.7 nM |  | 79.4 nM |  | 66.3 nM |
| CACAUGAGGAUCACCCAUGUCUGAACUGAAGGAGCGCUAAAUAAGGCAGGUAGGUCGCGGAAUCGUGUGUGCAUAUGCACACGCG [9.U] | 17.8 nM | 24 nM | 35.7 nM | 25.3 nM | 18 nM |
| CAUGUGAAAAUAAGAAGAAGAAGAAUAAAUCGAGGACCGGUACGGCCGCCACUCGUCGAAUCACAUGAGGAUCACCCAUGUAGCC [Tryptofun] | 26.3 nM |  | 52.6 nM | 69 nM |  |
| CCAUAGCUAGGAAGGAGCGCAUACUUCACAUGAGGAUCACCCAUGUCGAGACGUGAGUCAGUGCAGGUAGGUCGCCUAGCUAUGG [Same State - Arginine B (Freestyle 29)] | 18.1 nM | 18.6 nM | 24.2 nM | 25.5 nM | 20.6 nM |
| CCCAAUUUCCGAGAUAUGGGUCCAACUAAACGAGGACCGGUACGGCCGCCACUCGACUACAAACAUGAGGAUCACCCAUGUAAAG [theeternabot_exclusion_MS2_Trp_A_40] | 17.6 nM |  | 20 nM | 19.8 nM |  |
| CCCUCCAGAACGGCCGCCACUAAAGGGUUGUGUGCGACUCCGGAACAUGAGGAUCACCCAUGUCUUAGGACCGGGUUCCCUUCUA [theeternabot_sameState_MS2_Trp_B_30] | 58.9 nM |  | 81.9 nM | 82.2 nM |  |
| CCGGCCAAUUAGAAAUUAAUUGGCCGGAAACGAGGACCGGUACGGCCGCCACUCGUGGCGGGAGAAACAUGAGGAUCACCCAUGU | 23 nM |  | 54.7 nM | 53 nM |  |
| CCGGCCGCAUGAAGGAGCGCACAGCGCUCGCACAUGAGGAUCACCCAUGUAAAUGGGUGCGUGCAGGUAGGUCGCAUGCAGGCAA [Lesobete] | 133 nM | 313 nM | 544 nM | 671 nM | 472 nM |
| CCGUUCUCUGCGGCCGCCACUCAAGGAGCUACAUAGCUCCUAGACAUGAGGAUCACCCAUGUCGCGAGGACCGGGUAGAUUCUCC [Same State Typptophan B GF9] | 34.4 nM |  | 63.6 nM | 64.2 nM |  |
| CCUAUGCAGUCGGCCGCCACUGAUAAAAUUAUUUUUACCUCAGAAACAUGAGGAUCACCCAUGUACAGGACCGGGACUGUAUAGG [Ex Tryptophan B 17] | 24.2 nM |  | 20.1 nM | 22.8 nM |  |
| CCUAUGCAGUCGGCCGCCACUGUACAUGAGGAUCACCCAUGUUCUAAUAUAAUAAGAACUGAAAUCAGGACCGGGACUGUAUAGG [Ex Tryptophan B 2] | 1660 nM | 20.1 nM | 27.8 nM | 19.7 nM | 19.3 nM |
| CCUCAUGUGGUGCUGCACAUGAGAGGUGAUACCAGCAUCGAAAGAUGCCCUUGGCAGCACCAACAUGAGGAUCACCCAUGUAAUA [(M)'-(T)'-(M)''-(T1)-(T2)-(M1)-(M2)_Design1] | 27 nM |  | 94 nM |  | 25 nM |
| CCUGCGUUUCUUUUCUUUCGCAGGAAUGAUACCAGUAGGGAAACCUACCCUUGGCAGCAUGGGACAUGAGGAUCACCCAUGUAAU [SSThA NP+V+V2 #2] | 255 nM |  | 346 nM |  | 408 nM |
| CCUUUUAUUAAUGAUACCAGCGUAUUAAGCAUCACCUUGGACAUGAGGAUCACCCAUGUACGCCCUUGGCAGCAUACCACUGGGU [theeternabot_exclusion_MS2_Theo_B_5] | 35.7 nM |  | 52.2 nM |  | 34.7 nM |
